Measured values as given in patent US20050048070A1 (published 2005).

How the values were obtained:
[1] = target: T1, K8(1-85)/K18(1-72) heterotypic complex (human, UniProt P05787 2-86; P05783 2-73); assay: heterotypic association Western blot
T1 construct: Heterotypic complex of two GST fusion proteins; not shown: glutathione S-transferase (GST) fusion partner, modified pGEX-2T vector
T1 chain 1: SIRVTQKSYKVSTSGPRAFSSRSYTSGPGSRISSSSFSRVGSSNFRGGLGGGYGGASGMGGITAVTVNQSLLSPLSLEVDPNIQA
T1 chain 2: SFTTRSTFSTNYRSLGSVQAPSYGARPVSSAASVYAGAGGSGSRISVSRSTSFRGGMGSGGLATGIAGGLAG

[2] = target: T2, K8(1-85)/K18(1-124) heterotypic complex (human, UniProt P05787 2-86; P05783 2-125); assay: heterotypic association assay: blotted K8 proteins incubated with purified K18(1-124), then stained with COU-1
T2 construct: Heterotypic complex of two GST fusion proteins; not shown: glutathione S-transferase (GST) fusion partner, modified pGEX-2T vector

[3] = target: T3, K8(1-233)/K18(1-72) heterotypic complex (human, UniProt P05787 2-234; P05783 2-73); assay: heterotypic association assay: blotted K18 proteins incubated with purified K8(1-233), then stained with COU-1
T3 construct: Heterotypic complex of two GST fusion proteins; not shown: glutathione S-transferase (GST) fusion partner, modified pGEX-2T vector
T3 sequence 1: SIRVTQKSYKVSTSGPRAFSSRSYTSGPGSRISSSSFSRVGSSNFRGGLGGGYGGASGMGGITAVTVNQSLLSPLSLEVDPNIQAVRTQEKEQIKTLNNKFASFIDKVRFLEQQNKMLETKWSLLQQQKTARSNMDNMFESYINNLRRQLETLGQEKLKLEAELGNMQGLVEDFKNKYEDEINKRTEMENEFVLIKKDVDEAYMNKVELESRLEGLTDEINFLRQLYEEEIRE
T3 sequence 2: T1 chain 2

[4] = target: T4, K18(1-385) GST fusion protein (human, UniProt P05783 2-386); assay: Western blot of SDS-PAGE-separated K18 GST fusion proteins, stained with COU-1 alone
T4 construct: Alone, not complexed; not shown: glutathione S-transferase (GST) fusion partner, modified pGEX-2T vector
T4 sequence: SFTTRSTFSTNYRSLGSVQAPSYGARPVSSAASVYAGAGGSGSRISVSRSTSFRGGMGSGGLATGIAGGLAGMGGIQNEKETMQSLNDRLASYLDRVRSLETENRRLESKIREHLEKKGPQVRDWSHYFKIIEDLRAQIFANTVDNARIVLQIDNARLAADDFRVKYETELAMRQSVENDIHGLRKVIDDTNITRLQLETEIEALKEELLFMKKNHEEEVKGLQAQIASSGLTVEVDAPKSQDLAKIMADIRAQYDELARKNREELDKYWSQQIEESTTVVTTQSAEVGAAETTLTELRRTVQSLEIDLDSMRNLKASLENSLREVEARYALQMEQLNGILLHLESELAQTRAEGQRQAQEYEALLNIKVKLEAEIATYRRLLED

[5] = target: T5, K18(1-65) GST fusion protein (human, UniProt P05783 2-66); assay: Western blot of SDS-PAGE-separated GST fusion proteins
T5 construct: Alone, not complexed; not shown: glutathione S-transferase (GST) fusion partner, modified pGEX-2T vector
T5 sequence: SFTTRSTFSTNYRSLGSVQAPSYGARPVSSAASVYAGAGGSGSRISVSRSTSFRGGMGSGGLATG

[6] = target: T6, intact K8/intact K18 heterotypic complex (recombinant GST fusion proteins) (human, UniProt P05787 2-483; P05783 2-430); assay: SPR (BIAcore), complex immobilized, COU-1 injected
T6 construct: Heterotypic complex of two GST fusion proteins; also called intact K8/K18 complex; not shown: glutathione S-transferase (GST) fusion partner, modified pGEX-2T vector
T6 chain 1: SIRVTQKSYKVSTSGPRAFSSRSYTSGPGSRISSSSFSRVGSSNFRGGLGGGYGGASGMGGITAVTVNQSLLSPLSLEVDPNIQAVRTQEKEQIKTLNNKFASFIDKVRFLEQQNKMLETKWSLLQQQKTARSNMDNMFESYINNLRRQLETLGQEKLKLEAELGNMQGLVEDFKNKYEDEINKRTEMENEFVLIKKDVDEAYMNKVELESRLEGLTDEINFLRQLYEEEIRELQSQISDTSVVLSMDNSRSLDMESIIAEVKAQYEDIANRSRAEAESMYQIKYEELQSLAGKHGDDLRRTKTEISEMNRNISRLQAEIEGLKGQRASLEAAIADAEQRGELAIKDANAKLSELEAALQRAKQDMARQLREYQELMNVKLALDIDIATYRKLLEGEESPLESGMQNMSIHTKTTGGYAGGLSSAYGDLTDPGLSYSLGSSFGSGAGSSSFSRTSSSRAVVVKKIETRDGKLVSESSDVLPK
T6 chain 2: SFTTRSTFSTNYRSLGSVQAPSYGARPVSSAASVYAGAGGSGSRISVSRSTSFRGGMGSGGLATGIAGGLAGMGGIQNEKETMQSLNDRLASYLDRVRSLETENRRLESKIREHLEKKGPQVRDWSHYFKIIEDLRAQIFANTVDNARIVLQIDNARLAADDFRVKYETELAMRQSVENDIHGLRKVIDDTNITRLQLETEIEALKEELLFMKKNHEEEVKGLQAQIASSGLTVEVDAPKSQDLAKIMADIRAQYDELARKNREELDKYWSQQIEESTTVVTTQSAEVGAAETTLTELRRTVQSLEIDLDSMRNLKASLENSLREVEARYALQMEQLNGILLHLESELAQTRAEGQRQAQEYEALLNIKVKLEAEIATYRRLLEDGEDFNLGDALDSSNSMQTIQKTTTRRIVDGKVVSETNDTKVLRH

[7] = target: T7, intact K8/K18(1-65) heterotypic complex (human, UniProt P05787 2-483; P05783 2-66); assay: heterotypic association Western blot (K18 fragments on the membrane, incubated with purified intact K8)
T7 construct: Heterotypic complex of two GST fusion proteins; not shown: glutathione S-transferase (GST) fusion partner, modified pGEX-2T vector
T7 chain 1: T6 chain 1
T7 chain 2: T5 sequence

[8] = target: T8, K8(1-129)/intact K18 heterotypic complex (human, UniProt P05787 2-130; P05783 2-430); assay: ELISA: complex coated at 5 µg/ml, COU-1 in serial dilutions, AP-labeled anti-human kappa antibody
T8 construct: Heterotypic complex of two GST fusion proteins; not shown: glutathione S-transferase (GST) fusion partner, modified pGEX-2T vector
T8 chain 1: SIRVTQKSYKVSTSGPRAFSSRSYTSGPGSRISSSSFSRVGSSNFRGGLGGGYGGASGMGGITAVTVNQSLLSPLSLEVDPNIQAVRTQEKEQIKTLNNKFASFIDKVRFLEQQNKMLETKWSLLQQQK
T8 chain 2: T6 chain 2

B1: human monoclonal IgM antibody COU-1 (antibody, V domains shown)
VH: GAEVKKPGASVKVSCKASDYTFSSYYMHWVRQAPGQGLEWMGIINPSGGSTSYAQKFQGRVTMTRDTSTNTVYMELSSLRSEDTAVYYCARDQVVVAATLSNYGMDVWGQGTTVTVSS
VL: ELTQSPGTLSLSPGERATLSCRASQSVSSSYLAWYQQKPGQAPRLLIYDASNRATGIPARFSGSGSGTDFTLTISSLEPEDFAVYYCQQGTNWGIAFGQGTRLDIKR
notes: Human IgM with kappa light chain, secreted by hybridoma B9165 (ECACC 87040201), purified from culture supernatant; also called HMab COU-1; HuMab COU-1
**Q.** Does B1 bind [1]?
**A.** no binding (tested: COU-1 5 µg/ml)

**Q.** Does B1 bind [2]?
**A.** no binding (tested: 5 µg/ml COU-1 (P-0285))

**Q.** Does B1 bind [3]?
**A.** no binding (tested: 5 µg/ml COU-1 (P-0285))

**Q.** Does B1 bind [4]?
**A.** no binding (tested: 5 µg/ml COU-1 (P-0279))

**Q.** Does B1 bind [5]?
**A.** no binding (tested: COU-1 5 µg/ml)

**Q.** And the Ka [6]?
**A.** 1.8e+07 M⁻¹

**Q.** And the Kd [6]?
**A.** 55 nM

**Q.** What about the “fold lower binding than to the truncated complexes” value [6] of the same binder?
**A.** ~100 fold

**Q.** And the koff [6]?
**A.** 0.0005 s⁻¹

**Q.** And the kon [6]?
**A.** 9100 M⁻¹ s⁻¹

**Q.** Does B1 bind [7]?
**A.** no binding (tested: COU-1 5 µg/ml)

**Q.** And the “EC50 (read off the curve)” value [8]?
**A.** ~0.6 µg/mL
